The target in assay [1] is FFNFFKG-Toyopearl resin. Kind of assay: affinity chromatography.
The next assay addresses KWWIWAG-Toyopearl resin. In words: affinity chromatography.
The target in another assay is …-Toyopearl resin. Kind of assay: affinity chromatography.
For assay [2], the target named is KFNHWFG-Toyopearl resin. Kind of assay: batch adsorption isotherm.
The target of assay [3] is FFNFFKG-Toyopearl resin. In words: breakthrough chromatography.
The target in assay [4] is KFNHWFG-Toyopearl resin. In words: breakthrough chromatography.
The target in a further assay is FNHFFIG-Toyopearl resin. In words: affinity chromatography.
The next assay concerns the target GYISRHPG-Toyopearl resin. Kind of assay: affinity chromatography.
Assay [5] concerns the target KFNHWFG-Toyopearl resin. Kind of assay: affinity chromatography.
In the next assay the target is WKAHNKG-Toyopearl resin. Kind of assay: affinity chromatography.
In another assay the target is WWIKISG-Toyopearl resin. Kind of assay: affinity chromatography.
The target in assay [6] is the peptide-based adsorbents. Kind of assay: affinity chromatography.

Usually Kd stands for the constant that tells how readily two partners part at equilibrium. Low readings indicate tighter binding, high ones weaker binding.

Several values for one entry are separate records, joined by “and”; a condition that tells them apart may be missing. Equal values may be shown once. Some results are limits rather than exact numbers.

For “Adeno-associated virus serotype 9 capsid (complex)”, the yield (AAV titer in elution fraction vs. load) in the assay with FFNFFKG-Toyopearl resin [1] is 72.4%; in the assay with KWWIWAG-Toyopearl resin it was 57.2%; with …-Toyopearl resin, 61.7% and 43.9% and 53.7%.
In the assay with KFNHWFG-Toyopearl resin [2], “Adeno-associated virus serotype 2 capsid (complex)” returned a Kd of 0.16 pM. The results for the DBC10% (dynamic binding capacity at 10% breakthrough) (vp AAV per mL of resin) with FFNFFKG-Toyopearl resin [3] and with KFNHWFG-Toyopearl resin [4] were 1.4e+13 and 1.33e+13, respectively. Also, the loss (AAV titer in flow-through and wash vs. load) in the assay with FFNFFKG-Toyopearl resin [1], in the assay with FNHFFIG-Toyopearl resin, with GYISRHPG-Toyopearl resin, with KFNHWFG-Toyopearl resin [5], with KWWIWAG-Toyopearl resin and in the assay with WKAHNKG-Toyopearl resin was under 1.7% throughout. For the same substance, the loss (AAV titer in flow-through and wash vs. load) in the assay with WWIKISG-Toyopearl resin was under 1.7%; in assay [6], 1 to 4%; in the assay with …-Toyopearl resin, under 1.7%. In addition, the yield (AAV titer in elution fraction vs. load) with KFNHWFG-Toyopearl resin [5] was 45%; with WKAHNKG-Toyopearl resin it was 79.8%; in assay [6] it was 40 to 65%; with …-Toyopearl resin, 54.9% and 44.8%.

The values above are taken from PMC10440015.
